From the nanobody polyreactivity screen of Harvey et al. (2022)

Assay: yeast display, Sf9 membrane polyspecificity reagent, FACS + sequencing; frameworks hold sequencing errors
Method in brief: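 After 36–48 hours of galactose induction, yeast (Saccharomyces cerevisiae BJ5465) displaying a synthetic nanobody library were stained at 4 °C for 1 hour with 10% biotinylated, detergent-solubilized Sf9 membrane reagent. Streptavidin microbeads enriched the stained cells before FACS sorting into low and high (top ~1%) gates on anti-HA and streptavidin fluorescence. Each clone's polyreactivity label reflects its gate of origin.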

Sequence | polyreactivity (PSR sort gate)
QVQLVESGVRLVQSGGSLRLSCASSGFTIWRYAMGWYRQAPGKERELVAAISRSGTRTYYADSVKGRFTISRDNAKNTVYLQMNSLKPEDTAVYYCAADGLSLAYEHDYWGQGTQVTVSS | high polyreactivity
QVQLVESIGGLVQAGGSLRLSCAASGSIFQPYAMRWYRQAPGKERELVAAITTSGGRTYYADSVKGRFTMSRDNAKNTVYLQMNSLKPEDTAVYYCAADWGIGDYDYWGQGTQVTVSS | high polyreactivity
QVQLVESPGGLVKAGGSLRLSCDASGRTFYGYAMGWYRQPPGKEREFVAAITWSGSSTNYADSVKGRFTISRDNATNSVYLQMNSLKPDDTAVYYCAASYYAPYWSMDNWGQGTQETVSS | high polyreactivity
QVQLVESRAGLVQAGGSLRLSCAASGSTFGYYTMGWYRQAPGKERELVAAITWSGGSSYYADSVKGRFTISRDNAKKTVYLEMNSLKAEDTAVYFGAADDYWTPFGYWGQGTQVTVSA | low polyreactivity
QVQLVESRGALVQAGGSLRLSCAASGYIFRAYAMGWYRPAPGKERELVAAISSRGGSTYYADSVKGRFTISRDNAKNTVYLQMNSLKPEDTAVYYCAAAYRQPYIGYGYWGQGTQVTVSS | high polyreactivity
QVQLVESRGALVQAGGSLRLSCAASGYIFYSNAMRWYRQEPGKERELVAAITSGRGSTYYADSVKGRFTISRDNAKNTVYLQMNSLIPEDTAVYYCDVSIGRYPYRYGYWGQGTQVTVSS | high polyreactivity
QVQLVESRGGLVPAGGSLRLSCAASGITFYHYAIGWYRQAPVKERELVAAISRSGGSTSYADSVKGRLTISRDNAKITVYLEMNSLIPEDTAVYYCAARLVRESEPLGYWGQGTQVTVSS | high polyreactivity
QVQLVESRGGLVQAGCSLRLRCAASGFIFSWYAMGWYRHAPGKERELDAAISASGTSTYYADSVKGRFTISRDNAKNTVYLQMNSLKPEDTAVYYCAAEFVTEYLYGFVYEYDSWGQGTQVTVSS | low polyreactivity
QVQLVESRGGLVQAGGRLRLSCAASGIIFPRNAMGWYRQAPGKERELVAAITNTGSTKYADSVKGRFTISRDNEKNTVYLHMNSLKPEDTAVYFCAKELCSVPSPSLYDYWGQGTQVTVSS | low polyreactivity
QVQLVESRGGLVQAGGSLRLSCAASGFIFWRYAMGWYRQAPGKERELVASITYSGGRTYYADSVKGRFTISRDNAKNTVYLQMNILKPEDTAVYYCATARYRYHYYSWGQGTQVTVSS | high polyreactivity
QVQLVESRGGLVQAGGSLRLSCAASGFTFYSNAMGWYRQAPGKERELVAAIAKRGGSTYYADSVKGRFTISRDNAKNTVYLQMISLKPEDTAVYYCNKDYYARKYDYWGQGTLVTVSS | high polyreactivity
QVQLVESRGGLVQAGGSLRLSCAASGITFDVYDMGWYRQAPGKERELVASINSGGGITYYADSVKGRFTISRDNAKNTVYLQMNSLKPEDTAVFYCADDTWGSSWYDLFRETSDYWGQVTQVTVSS | low polyreactivity
QVQLVESRGGLVQAGGSLRLSCAASGITFYTYTMGWYRQAPGKERELVAVISASGARTYYADSVKGRFTISRDNAKNTVYLQMNSLKPEDTAVYYFAARSFYISPWRFDYWGQGTQVTVSS | high polyreactivity
QVQLVESRGGLVQAGGSLRLSCAASGITSPYAMGWYRQAPGKERELVAAISWSGSSTYYADSVKGRFTISRDNAKNTVYLQMNSLKPQDTAVYYCNTVGTRQPMDYWGQGTQVTVSS | high polyreactivity
QVQLVESRGGLVQAGGSLRLSCAASGLIFWFNTMGWYRQAPGTERELVAAITSGGGSTYYADSVKGRFTISRDIAKNTVYLQKNSLKPEDTAVYYCNAGAGRWRARQWHDYWGQGTQVTVSS | low polyreactivity
QVQLVESRGGLVQAGGSLRLSCAASGRIFDVYAMVWYRQAPGKERELVAAITWSGTSTYYADSVKGRFTISRDNAKNTVYVQMNSLKPEDTAVYYCAAEVAYTDTEYFWYYYWGQGTQVTVSS | high polyreactivity

Sequence | polyreactivity (PSR sort gate)
QVQLVESRGGLVQAGGSLRLSCAASGRIFNVYAMGWYRQAPGKERELVAGISGSGGRTYYADSVKGRFTISRDNAKNTVYLQMNSLKPEDTAVYYCNTVRHYSSWGQGTQVTVSS | high polyreactivity
QVQLVESRGGLVQAGGSLRLSCAASGRIFYVNAMGGYRQAPGKERELVAAIDVSGGRTYYADSVKGRFTISRDNAKNTVYLQMNSLKPEDTAVYYCAALKYRWTPYYPYDYWGQGTQVTVSS | low polyreactivity
QVQLVESRGGLVQAGGSLRLSCAASGRTFAVYALGWYRQAPGKEWELVAAITLGASRTYYADSVKGRFTISRDNAKNTVYLQMNSLKPEDTAVYSCNAVGRRNVDSSLNDYWGQGTQVTVSS | low polyreactivity
QVQLVESRGGLVQAGGSLRLSCAASGRTFDGYVMGWYRQAPGKERELVAAISWGGSYTYYADSVKGRFTISRDNAKNTVYLQMNSLKPEDTAVYYCAKDTVPNVRDYWGQGTQVTVSS | low polyreactivity
QVQLVESRGGLVQAGGSLRLSCAASGRTFGIYTMGWYRQAPGKERKLVAAISKRGSSTYYADSVKGRFTISRDNANNTVYLQMNSLKPEDTAVYYCAATRRYRYNWGQGSQVTVSS | high polyreactivity
QVQLVESRGGLVQAGGSLRLSCAASGRTFGRNTMGWYRQAPGKERELVAAISISGTSTYYADSVKGRFTISRDNAKNTVSLQMNSLKPEDTAVYDCAARYIRGSYGMGYWGQGTQVTVSS | high polyreactivity
QVQLVESRGGLVQAGGSLRLSCAASGSIFYRNVMGWYTQAPRKEREWVAAISGRGGSTYYADSVKGRFTISRDNAKNTVYLQFTSLKPEDTAVYYCATELTYRHGYWGQGTQVTVSS | high polyreactivity
QVQLVESRGGLVQAGGSLRLSCAASGSTFGQYPMGSYRQEPGKERELVATITSPGSTNYADSVKGRFTISRDNAKNTVYFQMNSLKPEDSAVYYCNAVTGYWDGTEARQPYDYWGQGTQVTVSS | low polyreactivity
QVQLVESRGGLVQAGGSLRLSCAASGSTFRTNTMGWSRQAPGKEREVVADISWSGGSTDYADSVKGRFTISRDNAKNTVYLQMNSLKPEDTAVYFCAKDGAFWTYYSWYDYWGQGTQVTVSS | low polyreactivity
QVQLVESRGGLVQAGGSLRLSCAASGSTFTYNAMGWYRQAPGKERELVASINSGGSTYYADSVKGRFTISRDNAKNNFYLQMNSLKPEDTAVYYCAKDLHLDSYASDYWGQGTQVTVSS | low polyreactivity
QVQLVESRGGLVQAGGSLRLSCAASGSTRGSNAMGRYRQAPGKEMELVAAITWSGGTTYYADSVKGRFTISRDNAKNTVYLQMHSLKPEDTSVYYCATGQSVIYRYEYWGQGTQVTVSS | low polyreactivity
QVQLVESRGGLVQAGGSLRLSCAATGSIFNNYDMGWYRQAPGKERELVADISRGGDTNYADSVKGRFTISRDNAKYTVYLQMTSLNPVDTAVYYCNATYWILDSPWRRETFDYWRQGTQVTVSS | low polyreactivity
QVQLVESRGGLVQAGGSLRLSCPASGFTFVNYAMGWYRQAPGKERELVAAIRRSGSRTYYADSVKGRFTISRDNAKNTVYLQMNSLKPEVTAVYYCNAPVVYFWPLNFDYWGQGTQVTVSS | low polyreactivity
QVQLVESRGGLVQAGGSLRLSCPDSGSNLLSYAMGWYRQAPGKERELVAAITTRDGSTYYADSVKGRFTISRDNAKYTVYLQMTSLKPEDTAVYYCNVDARSSYDYWGQGTQVTVSS | low polyreactivity
QVQLVESRGGLVQAGGSLRLSFAASGIIFADYAMGWYRQAPGKERELVAAISSGDSTYYADSVKGRFTISRDNAKNTVYLQMNSLKPEDTAVYYCAARLYRNKYRIAKMNYWGQGTQVTVSS | high polyreactivity
QVQLVESRGGLVQAGGSLRLSSAASGFTFHGNAMRWYRQAPGKERQLVAGISSSGASTYYADSVKGRFTISRDNAKNTVYLQMNILKPEDTAVYYCAVRYYGRYLRYNYCGQGTQVTVSS | high polyreactivity
